# From patent US20100323974A1
# Key:
# [1] = target: poly(ADP-ribose) polymerase I (PARP-1), native, co-purified from HeLa cells (UniProt P09874); assay: cell-based or functional assay
# [2] = target: mutated e-mH2A1.1 nucleosome complex (HXTX motif at positions 213-216 converted to AAAA) (human) (UniProt O75367); assay: tagged nucleosome complexes isolated at 300 mM NaCl, silver stained SDS-PAGE, PARP-1 relative to histone H1
# Sequence of mutated e-mH2A1.1 nucleosome complex (HXTX motif at positions 213-216 converted to AAAA) (human) (O75367 whole entry, stated change not applied, one chain of several): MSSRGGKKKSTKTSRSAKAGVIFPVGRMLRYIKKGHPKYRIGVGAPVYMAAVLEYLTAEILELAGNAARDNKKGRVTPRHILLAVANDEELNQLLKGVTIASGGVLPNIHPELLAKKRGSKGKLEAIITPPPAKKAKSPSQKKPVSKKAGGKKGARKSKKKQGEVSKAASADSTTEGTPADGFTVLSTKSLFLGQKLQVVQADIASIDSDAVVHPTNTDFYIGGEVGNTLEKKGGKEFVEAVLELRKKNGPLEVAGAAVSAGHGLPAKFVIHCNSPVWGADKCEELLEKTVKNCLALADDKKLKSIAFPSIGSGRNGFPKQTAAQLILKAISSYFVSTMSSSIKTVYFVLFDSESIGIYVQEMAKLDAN
# Sequence of poly(ADP-ribose) polymerase I (PARP-1), native, co-purified from HeLa cells (P09874 2-1014 limits assumed): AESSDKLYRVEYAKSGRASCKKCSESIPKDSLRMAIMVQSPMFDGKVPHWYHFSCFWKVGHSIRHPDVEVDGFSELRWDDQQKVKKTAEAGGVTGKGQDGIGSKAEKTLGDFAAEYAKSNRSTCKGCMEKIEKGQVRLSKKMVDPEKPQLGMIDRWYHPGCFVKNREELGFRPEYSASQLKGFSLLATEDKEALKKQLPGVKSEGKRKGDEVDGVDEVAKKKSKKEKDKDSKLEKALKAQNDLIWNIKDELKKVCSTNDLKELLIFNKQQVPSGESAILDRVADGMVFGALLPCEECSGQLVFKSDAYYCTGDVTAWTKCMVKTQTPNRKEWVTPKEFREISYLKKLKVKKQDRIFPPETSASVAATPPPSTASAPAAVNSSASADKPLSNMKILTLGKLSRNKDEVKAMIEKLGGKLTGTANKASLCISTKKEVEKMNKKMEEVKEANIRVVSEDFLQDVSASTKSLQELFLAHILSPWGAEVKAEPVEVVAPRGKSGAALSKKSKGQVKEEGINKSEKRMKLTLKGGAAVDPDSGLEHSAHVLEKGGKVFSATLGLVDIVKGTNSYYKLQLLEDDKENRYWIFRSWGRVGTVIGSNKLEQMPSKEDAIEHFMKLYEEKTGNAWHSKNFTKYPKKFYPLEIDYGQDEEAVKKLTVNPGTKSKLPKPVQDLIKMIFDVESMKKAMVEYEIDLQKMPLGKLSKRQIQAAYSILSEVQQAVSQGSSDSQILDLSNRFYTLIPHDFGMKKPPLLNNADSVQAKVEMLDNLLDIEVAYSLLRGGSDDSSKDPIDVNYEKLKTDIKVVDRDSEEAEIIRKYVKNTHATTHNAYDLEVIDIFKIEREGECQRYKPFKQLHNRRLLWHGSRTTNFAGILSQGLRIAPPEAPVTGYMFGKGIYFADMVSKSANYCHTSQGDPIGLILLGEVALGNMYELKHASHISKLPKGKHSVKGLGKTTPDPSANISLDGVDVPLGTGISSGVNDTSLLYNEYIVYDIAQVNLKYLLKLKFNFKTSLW
Substance,"extent of PARP-1 labeling during the first minute, against PARP-1 associated with the wild type e-mH2A1.1 nucleosomes [1] [times]","amount of PARP-1 associated, percent of that associated with the WT emH2A1.1 nucleosome complex [2] [%]"
mutated e-mH2A1.1 nucleosome complex (HXTX motif at positions 213-216 converted to AAAA) (from UniProt O75367 1-369),37,
"poly(ADP-ribose) polymerase I (PARP-1), native, co-purified from HeLa cells (from UniProt P09874 2-1014)",,8 to 10
